Assay results published in IntAct's records for PubMed 24895401.

B1: Ras GTPase-activating-like protein IQG1 (Saccharomyces cerevisiae), Q12280 (parent)
chain: MTAYSGSPSKPGNNNSYLNRYVENLGTNVTPPLRPQSSSKINSSLNIASPSHLKTKTSASNSSATILSKKVESSVSKLKPSLPNKLVGKYTVDLSNYSKIELRYYEFLCRVSEVKIWIEAVIEEALPSEIELCVGDSLRNGVFLAKLTQRINPDLTTVIFPAGDKLQFKHTQNINAFFGLVEHVGVPDSFRFELQDLYNKKNIPQVFETLHILISMINKKWPGKTPALTNVSGQISFTKEEIAACKKAWPRIRDFKSLGTNINTAPASPEEPKEKRSGLIKDFNKFERPNIPVEEILITPRKNITDANCSDFSNTPSPYNEAPKMSNLDVVVEKRKFTPIEPSLLGPTPSLEYSPIKNKSLSYYSPTISKYLTYDTEFYTRRSRAREEDLNYYQTFKYSPSHYSPMRRERMTEEQFLEKVVQLQNICRGVNTRFNLYIQKRLLNLFEQDILRFQACLRGNKFRVLSSMYLPIRRAKIDVPHVEAIQSRIKGSRIRYKYDKLKFTLSRFSCTVELLQAYCRSKLLKTTVNTKLNDIEISHYPLTKLQSYMRASYVRKKVMSLNTKLNDERESIMKFSAIIRGNVVRCSEDAILSAVHDVHKENISKLQSLIRGIFTRSCLASIIYSLGKENCNIIQLSACIRGNAVRHKVQSLFAPENNLSETVHDLQGLVRGILVRYTLDLVDDIVEYNNLALFQAFSRGALVRESLDQKSSFYKRNVRSVIMIQSWIRKSLQRSAYLELLDCPNPSLWAVKKFVHLLNGTATIEEVQNQLESCQASLDSENMKKERLLKSIRQQLNINGVLDKFGLLKDKDHELGISDSTIPKSKYQKYEKLFYMLQVDPSYWKLLYLKEPEFVAKNVYMTFGTVNQRMNDRERSYFTRFVCEMLQNAINEAPSIESFLDNRSQFWQTILQDFLRRESPEFFSIIVPVLDYLSDPVVDFESDPYKIYQEIHGFSSPQHCSPVDDASTKNKFIDNLRCLWHAIEMVAEIYTRKVHTIPVEIRYLCTKIFCYAADKNIEEIDSLRAISSILVNVFVSEYLVNREYYGYKDSNVQKNNQKIDILMKSLATVFEIKNFDGFLDPLNQYANEIKPHIKDVLYNVLVDPEYEQEGDRLIYLDMVSPSPKLELLTEKVLEISGKFEEYLNEFPEADILHDILEKNLDNSSFPRSGRVTLELDASAYRFLVSDDKMRKIYDQVKRAFVYMMQIEDVDTNLYDLSISTILPQDEPNFANFLEQNPKIRDDPMIQKLKPLKYFTLKNVTLKKIHELESTGTFCSSDNKLQNFLNDIANTIKNPNYAIDYVTQEIYITKETLTKISEMNHSLDIELSRLKKHVDHTIKDFQKAKDFSPVHKSKFGNFKNAVKKVQGRERSELQGMKFKWNTKQLYERGVLKTIRGEKLAELTVKVFGSSGPKFPDIIFKISTSDGSRFGIQMIDKRKGPDKRYSDDVDSFSFKDLIKTQVEPKIETWKLFHSNVVVNNSQLLHLIVSFFYKRNAL
partner: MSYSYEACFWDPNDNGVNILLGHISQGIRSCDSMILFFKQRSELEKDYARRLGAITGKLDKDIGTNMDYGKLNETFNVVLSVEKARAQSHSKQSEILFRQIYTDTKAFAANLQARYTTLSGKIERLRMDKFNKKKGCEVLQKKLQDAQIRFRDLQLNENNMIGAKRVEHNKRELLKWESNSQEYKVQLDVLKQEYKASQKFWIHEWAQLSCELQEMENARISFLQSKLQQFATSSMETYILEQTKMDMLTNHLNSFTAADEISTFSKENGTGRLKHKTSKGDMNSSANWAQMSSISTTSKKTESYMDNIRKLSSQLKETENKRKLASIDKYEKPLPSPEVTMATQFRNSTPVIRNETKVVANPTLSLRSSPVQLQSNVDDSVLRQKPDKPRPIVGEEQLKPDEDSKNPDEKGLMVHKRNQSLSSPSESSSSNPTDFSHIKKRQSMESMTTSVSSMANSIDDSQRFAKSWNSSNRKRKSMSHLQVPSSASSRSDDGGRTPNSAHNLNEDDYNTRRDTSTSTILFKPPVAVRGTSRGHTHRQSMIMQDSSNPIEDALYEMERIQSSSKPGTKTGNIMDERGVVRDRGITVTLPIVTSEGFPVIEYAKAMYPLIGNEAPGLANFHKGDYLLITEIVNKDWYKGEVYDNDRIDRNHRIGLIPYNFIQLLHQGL

Variants of: B1
Conditions: with cyk2_yeast HOF1, Q05080

Row | effect of a mutation on the interaction | Variant
1 | disrupting interaction strength | Q695S
2 | disrupting interaction strength | Q667S
3 | with no effect | Q725S
4 | disrupting interaction strength | Q667S;Q695S
